assay: yeast display, Sf9 membrane polyspecificity reagent, FACS + sequencing; frameworks hold sequencing errors
Method in brief: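 A synthetic nanobody library was expressed on Saccharomyces cerevisiae BJ5465 by galactose induction for 36–48 hours. The library was stained for 1 hour at 4 °C with 10% biotinylated, detergent-solubilized Sf9 membrane reagent and enriched with streptavidin microbeads before FACS. Low and high (top ~1%) gates were set on anti-HA fluorescence for expression and streptavidin fluorescence for reagent binding, and each polyreactivity label reflects the gate of origin.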

| Sequence | polyreactivity (PSR sort gate) |
| --- | --- |
| QVQHVESGGGLVQAGGSLRLSCAASGFTFYSYVMGWYRQAPGKERELVAAITRGGSTYYADSVKGRFTISRDNAKNTVYLQMTSLKPEDTAVYYCAKRPSYGYNYWGHGTQVTVSS | low polyreactivity |
| QVQHVESGGGLVQAGGSLRLSCAASGGTFLANAMGWYRQAPGKERELVAAISWRGGSTRYADSVKGRFTISRDNAKNTVYLQMNSLKPEDTAVYYCAARYLYFTGFYYWGQGTQVTVSS | high polyreactivity |
| QVQHVESGGGLVQAGGSLRLSCAASGIFFFYGMGWYRQAPGKQRQLLAVISTGDTTDYADSVKGRSTISRDNAKNTVYLQMNSLIPEDTAVYYCAATGRSRSYSWSKLNYWGQGTQVTVSS | low polyreactivity |
| QVQHVESGGGLVQAGGSLRLSCAASGIIFYDKTMGWYRQAPGKERELVASITWRGGSTYYADSVKGRFTISRDNAKNTVYLQMNSLKPEDTAVYYCNADSSDDYDYWGQGTQVTVSS | low polyreactivity |
| QVQHVESGGGLVQAGGSLRLSCAASGIIFYDYTMGWYRQAPGKERELVAVITNGDTTYYADSVKGRFTISRDNAKNTVYLQMNSLKPEDTAVYYCAADKRPPYILDYWGQGTQVTVSS | high polyreactivity |
| QVQHVESGGGLVQAGGSLRLSCAASGITFYRYAMGWYIQAPGKERELVAAINASGGSTYYADSVKGRFTISRDKAKNTVYLQMNSLKPEDTAVYYCAADRVSWVKHYYWGQGTKVTVSS | high polyreactivity |
| QVQHVESGGGLVQAGGSLRLSCAASGITFYVNDMGWSRQAPGKEREFVAAISYRGGSPYYADSVKGRFTFSRDNAKNTVYLKMNSLKPEDTAVYYCAADYNYWSPHRYDYWGQGTQVTVSS | low polyreactivity |
| QVQHVESGGGLVQAGGSLRLSCAASGLTFELYAMGWYRQAPGKERELVAAITWSGGRTYDADSVKGRFTISRDNAKNTVYLQMNSLKPEDTAVYYCAADVYPGYVGSQEYDYWGQGTQVTVSS | low polyreactivity |
| QVQHVESGGGLVQAGGSLRLSCAASGLTFRVYAMGWYRQEPGKERELVAAITGGGGSTYADSVKGRFTISRENAKNTVYLQMNSLNPDDTAVYYCNIKGYYYKFDYWGQGTQVTVSS | low polyreactivity |
| QVQHVESGGGLVQAGGSLRLSCAASGQIYNQNAMGWYRQAPGKERELVAAISYRGGSTYYADSVKGRFTISRDNAKNTVYLQMNSLKPEDTADYYCAAARSGSGGKQFDHGFNYWGQGTQVTVSS | high polyreactivity |
| QVQHVESGGGLVQAGGSLRLSCAASGRIFGPYAMGWYRQAPGKEREFVAVITYSSGSTYYADSVKWRFTISRDNAKNTVYLQMNSLKPEDTAVYYCAARLIRSYYYGRYDYWGQGTQVTVSS | high polyreactivity |
| QVQHVESGGGLVQAGGSLRLSCAASGRIFHYNAMGWYRQAPGKERELVAAITWIGGSTYADSVKGRFTISRDNAKNTVYLQMNSLKPEDTAVYYCNARYIYRFDYWGQGTQVTVSS | low polyreactivity |
| QVQHVESGGGLVQAGGSLRLSCAASGRIFNLYAMGWYRQAPGKERELVAAIRGRGTSTYYADSVKGRFTISSDNAKNTVFLQINSLKPEDTAVYYCAREGGYGPTLQDTSRYEYCGQGTQVTVSS | low polyreactivity |
| QVQHVESGGGLVQAGGSLRLSCAASGRIFPFNAMGCYRQAPGKETEFVAAIRLSGTRTYYADSVKGRFTISRDNAKNTVYLQMNCLNPEDTAVYYCAAKFSGHYYNYDYWGQGTQVTVSS | high polyreactivity |
| QVQHVESGGGLVQAGGSLRLSCAASGRIFSSNAMGWYRQAPGKERELVASITSGGNTNYADSVKGRFTISRDNAKNTVYLQMNSLKPEDTAVYYCAALSKTRCGYWGQGTQVTVSS | high polyreactivity |
| QVQHVESGGGLVQAGGSLRLSCAASGRIFSTNPMGWSRQAPGKERELVAAITTSGGITYYADSVKGRFTISRDNAKNTVYLQMNSLKPEDTGVYYCNTGYYGRLRDDYWGQGTQVTVSS | high polyreactivity |
| QVQHVESGGGLVQAGGSLRLSCAASGRIFTYYTMGWYRPAPGKEREFVAAISWSGTSTYYADSVKGRFRISRDNAKNTVYLQMKSLKPEDTAVYSCAARNWYSRYDYWGQGTQVTVSS | high polyreactivity |
| QVQHVESGGGLVQAGGSLRLSCAASGRIFYAYAMGWYRQAPGKQREMVAAITARGGSTYYADSVKGRFTISRDNAKNTVYLQINSLKPEDTAVYYCAKDTLLETGYEYWGQGTQVTVSS | high polyreactivity |
| QVQHVESGGGLVQAGGSLRLSCAASGRNFTYYAMGWYRQAPGKERELVAAISGGGITNYADSVKGRFTISRDNAKNTVYLQMNSLKPEDTAVYYCAADQRYRRAFRSRYGSWGQGTQVTVSS | low polyreactivity |
| QVQHVESGGGLVQAGGSLRLSCAASGRTFQYNTMGWYRQAPGKERELVAAISWGGGSTYYADSVKGRFTISRDNAKNTVYLQMNSLKPEDTAVYYCAATHYRGKGYYYWGQGTQLTVSS | low polyreactivity |
| QVQHVESGGGLVQAGGSLRLSCAASGRTFRANTMGWYRQAPGKERELVASIRGNGGTTYYADSVKGRFTISRDNAKNTVYLQMNSLKPEDTAVYYCAAGLYYIRWSRRYEYWGQGTQVTVSS | high polyreactivity |
| QVQHVESGGGLVQAGGSLRLSCAASGRTFVRYAMGWSRPAPGKERELVAAISRSGVGTYYADSVKGRFTISRDNAKKTVYLQMNSLKPEDTAVYYCNALPGTQYNYWGQGTQVTVSS | high polyreactivity |

| Sequence | polyreactivity (PSR sort gate) |
| --- | --- |
| QVQHVESGGGLVQAGGSLRLSCAASGRTFYLNAMGWSRQAPGKARELVATISYTGDTTYYADSVKGRFTISRDNAKNTVYLQMNSLKPEDTAVYYCAKDYSLTQQRHAAYIVGSVDYWGQGTQVTVSS | high polyreactivity |
| QVQHVESGGGLVQAGGSLRLSCAASGRTFYNYAKGWYRQAPGKERELVAGITSCGGSTYYADSVKGRFTISRDNAKNTVYLQMNSLKPEDTAVYYCARVWPSQKHYYWGQGTQVTVSS | high polyreactivity |
| QVQHVESGGGLVQAGGSLRLSCAASGRTFYRYAMGWYRQAPGKERELVAAISGSGTSTSYADSVKGRFTISRDNAKNSVYLQMNSLKPEDTAVYYCAATYYVYYYSRYYFWGQGTQVTVSS | high polyreactivity |
| QVQHVESGGGLVQAGGSLRLSCAASGRTFYSYAMGWYRQAPGKDRELVAAITSDGGTYYADSVKGRFTISRDNAKNTVYLQMNSLKPDDTAVYYCNTRDLYGYPQVTGYDYWGQGTQVTVSS | low polyreactivity |
| QVQHVESGGGLVQAGGSLRLSCAASGRTLIYNAMGWYRQAPGKERELVAAITGGGGRTYYADSVKGRFTISRDNAKNTVYLQMNSLKPEDTAVYYCAVAGTVLSHMGYWGQGTQVTVSS | low polyreactivity |
| QVQHVESGGGLVQAGGSLRLSCAASGRTSIPYAMGRYRQAPGKEWQLVAAISYSVGRTYYADSVKGRFTISRDNAKNTVYLQMNSLKPEDTAVYYCAAEYNGVVRDYDYWGQGTQVTVSS | low polyreactivity |
| QVQHVESGGGLVQAGGSLRLSCAASGRTVYGYTMGWDRQAPGKERELVAAISYSGDSTYYADSVKGRFTISRDTAKNTVYFPMNSLKPEYTAVYYCAVRRYARFNYHYWGQGPQVTVSS | high polyreactivity |
| QVQHVESGGGLVQAGGSLRLSCAASGSIFEDYVMGWYRQAPGKERELVADITSGGTTYYADSVKGRFTISRDNAKNTVYLQMNSLKPEDTAVYYCAAEVDWVPFLLDYWGQGTQVTVSS | low polyreactivity |
| QVQHVESGGGLVQAGGSLRLSCAASGSIFGDNAMGWYRQAPGKERELVAAISSGGPTYADSVKGRFTISRDNAKNTVYLQMNSLKPEDTAVYYCNATDGITPYDLTDIEFDYWGQGTQVTVSS | low polyreactivity |
| QVQHVESGGGLVQAGGSLRLSCAASGSIFPDNAMGWYRQAPGQERELVAAIDKGTGSTNYADSVTGRFTLSRDNAKNNVYFQMNSLKPEDTAVYYCAKGWLTPRGGAWYDDYWGQGTHVTVSS | low polyreactivity |
| QVQHVESGGGLVQAGGSLRLSCAASGSIFRRYDLGWSRQAPGKERELVAAISSSGGSTYYADSVKGRFTISRDNAKNTVYLQMNSLKPEDTAVYYCAADIYDDDRSESTEYDYWGQGTQVTVSS | low polyreactivity |
| QVQHVESGGGLVQAGGSLRLSCAASGSIFRWYAMGWYRQAPGKERELVAGITSGGSTNYADSVKGRFTISRDNAKNTVYLQMNSLKPEDTAVYYCNARRWVGSRYDYWGQGTQVTVSS | high polyreactivity |
| QVQHVESGGGLVQAGGSLRLSCAASGSIFSAYTMGWYRPAPGKERELVAAISSSGGRTYYADSVKGRFTISRDNAKNTVYLQMNSLKPEDTAVYYCAAGYWWALSSRGYGYWGQGTQVTVSS | high polyreactivity |
| QVQHVESGGGLVQAGGSLRLSCAASGSIFTGNAMGWYRQAPGKEREFVAAITNGGITNYADSVKGRFTISRDNAKNTVYLQMNSLKPEDTAVYYCAADYVDFYSFRRFDYWGQGTQVTVSS | low polyreactivity |
| QVQHVESGGGLVQAGGSLRLSCAASGSIFTVYAMGWYRQAPGKERELVAGITSGGNTNYADSVKGRFTISRDNAKNTVYLQMNSLKPEDTAVYYCAARIYGYVTYGYWGQGTQVTVSS | low polyreactivity |
| QVQHVESGGGLVQAGGSLRLSCAASGSIFVPYAMGWYRQAPGKERELVAAISSRGGRTYYADSVKGRFTISRDNAKNTVYLQMISLKPEDTAVYYCNKTAGSHIPRLEYWGQGTQVTVSS | low polyreactivity |
| QVQHVESGGGLVQAGGSLRLSCAASGSIFWDNAMGWYRQAPGKERELVAAITSSGDTTYYADSVKGRFTISRDNAKNTVYLQMNSLKPEDTAVYYCAKVFGPTDYLTGTFKGDYWGQGTQVTVSS | low polyreactivity |
| QVQHVESGGGLVQAGGSLRLSCAASGSIFWYYAMGWYRKAPVKERELVAAITSSGGRTYYADSVKGRFTISRDNAKNTVYLQMNSLKQEDTAVYYCAARQWWRYDYWGQGTQVTVSS | high polyreactivity |
| QVQHVESGGGLVQAGGSLRLSCAASGSNFGYVMGWYRQAPGKERELVAAISRSGGSTYYADSVKGRFTISRDNAKNTVYLQMNSLKPEDTAVYYCAARLYSSSYNSEQYYYWGQGTQVTVSS | high polyreactivity |
| QVQHVESGGGLVQAGGSLRLSCAASGSTFARYGLGWYRQAPGKERELVASLTYTGGRTYADSVKGRFTFSRDNAKNTVYLQMNSLKPEDTAVYYCAARYRLWGQGTQVTVSS | low polyreactivity |
| QVQHVESGGGLVQAGGSLRLSCAASGSTFDDNVMGWYRQAPGKERELVAAISSSGGSTYYADSVKGRFTISRDNAKNTVYLQMNSLKPEDTAVYYCNAVYFGLWGYYARRSYNYWGQGTQVTASS | low polyreactivity |

Source: the nanobody polyreactivity screen of Harvey et al. (2022)
